Data reported in the supplement of paper PMC7125110.
± gives the standard error. For some of these results: Variants at the floor of the assay were thinned out.

B1: glmS ribozyme (parent)
chain: AUAAAAGCGCCAGAACUACAGAAAUGUAGUUGACGAGGAGGAGGUUUAUCGAAUUUUCGGCGGAUGCCUCCAAA

How the values were obtained:
Details in all cases: with glucosamine-6-phosphate
glucosamine-6-phosphate [1] = variants of: B1; assay: kcat; higher = faster cleavage; RNA array
How it was run: (§1)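 kobs was derived by fitting per-tile medians to one- or two-exponential decays after normalising signals to baseline and to non-cleaving reference variants. Those signals came from barcoded ribozyme variants transcribed in situ by E. coli RNA polymerase on sequenced MiSeq chips, followed through a hybridised Cy3 probe at 37 °C and imaged over ~14 h. Glucosamine-6-phosphate (40 μM to 10 mM) in HEPES/KCl/Mg(OAc)2 buffer was flowed in. Weighted Michaelis–Menten fits across concentrations then gave kcat and KM.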

glucosamine-6-phosphate [2] = variants of: B1; assay: KM; higher = weaker cofactor use; RNA array
How it was run: as §1

glucosamine-6-phosphate [3] = variants of: B1; assay: self-cleavage kobs at 160 uM GlcN6P; higher = faster cleavage; RNA array
How it was run: as §1

glucosamine-6-phosphate [4] = variants of: B1; assay: self-cleavage kobs at 640 uM GlcN6P; higher = faster cleavage; RNA array
How it was run: as §1

glucosamine-6-phosphate [5] = variants of: B1; assay: self-cleavage kobs at 40 uM GlcN6P; higher = faster cleavage; RNA array
How it was run: as §1

glucosamine-6-phosphate [6] = variants of: B1; assay: self-cleavage kobs at 2500 uM GlcN6P; higher = faster cleavage; RNA array
How it was run: as §1

glucosamine-6-phosphate [7] = variants of: B1; assay: self-cleavage kobs at 10000 uM GlcN6P; higher = faster cleavage; RNA array
How it was run: as §1

| Variant | kcat (glucosamine-6-phosphate [1]) | KM (glucosamine-6-phosphate [2]) | self-cleavage kobs at 160 uM GlcN6P (glucosamine-6-phosphate [3]) | self-cleavage kobs at 640 uM GlcN6P (glucosamine-6-phosphate [4]) | self-cleavage kobs at 40 uM GlcN6P (glucosamine-6-phosphate [5]) | self-cleavage kobs at 2500 uM GlcN6P (glucosamine-6-phosphate [6]) | self-cleavage kobs at 10000 uM GlcN6P (glucosamine-6-phosphate [7]) |
| --- | --- | --- | --- | --- | --- | --- | --- |
| A6C A53C | 2.09e-05 ± 4.9e-07 s⁻¹ | 1550 ± 150 µM | < 1e-05 s⁻¹ | < 1e-05 s⁻¹ |  |  |  |
| A6G A15U | 7.69e-05 ± 9.2e-06 s⁻¹ |  |  | 2.52e-05 ± 1e-05 s⁻¹ | < 1e-05 s⁻¹ | 7.01e-05 ± 1.2e-05 s⁻¹ | 6.82e-05 ± 6.2e-06 s⁻¹ |
| A6C C16G U31C C34G C68A | 1.74e-05 ± 6.6e-06 s⁻¹ |  |  |  |  |  |  |
| G7A C50A | < 1e-05 s⁻¹ |  | < 1e-05 s⁻¹ |  | < 1e-05 s⁻¹ | < 1e-05 s⁻¹ |  |
| G7C C50G | 1.12e-05 ± 2.4e-06 s⁻¹ |  |  |  |  |  |  |
| C8A A48G | < 1e-05 s⁻¹ |  | < 1e-05 s⁻¹ |  |  | < 1e-05 s⁻¹ | < 1e-05 s⁻¹ |
| A6U U45A | 0.000657 ± 1.8e-05 s⁻¹ | 2490 ± 130 µM |  | 0.000134 ± 2e-05 s⁻¹ |  | 0.000337 ± 6.4e-05 s⁻¹ | 0.000523 ± 7.7e-05 s⁻¹ |
| A6U A15C | 7.81e-05 ± 1.6e-05 s⁻¹ | 4250 ± 2000 µM |  |  | < 1e-05 s⁻¹ | 2.58e-05 ± 7.8e-06 s⁻¹ | 5.56e-05 ± 8.2e-06 s⁻¹ |
| C8G U57A C70A | 5.04e-05 ± 1.1e-05 s⁻¹ |  |  |  |  |  |  |
| A6U A12U | 0.000909 ± 9.6e-05 s⁻¹ | 2840 ± 510 µM | 6.32e-05 ± 1.6e-05 s⁻¹ | 0.000158 ± 2.3e-05 s⁻¹ |  | 0.000426 ± 4.8e-05 s⁻¹ | 0.000715 ± 9.1e-05 s⁻¹ |
| A6U A12C | 0.000271 ± 9.3e-05 s⁻¹ |  |  |  |  | 0.000111 ± 3.2e-05 s⁻¹ | 0.000168 ± 2.9e-05 s⁻¹ |
| A6G U65G | 0.000323 ± 2.1e-05 s⁻¹ | 3580 ± 500 µM |  | 4.35e-05 ± 1e-05 s⁻¹ |  | 0.000141 ± 1.6e-05 s⁻¹ | 0.000234 ± 2e-05 s⁻¹ |
| A6U A15U G63U G66A | 1.95e-05 ± 6.5e-06 s⁻¹ |  |  |  |  |  |  |
| A6G A33G | < 1e-05 s⁻¹ |  |  |  |  |  | < 1e-05 s⁻¹ |
| G7U G37C | < 1e-05 s⁻¹ |  |  | < 1e-05 s⁻¹ | < 1e-05 s⁻¹ |  |  |
| A6U G38C | < 1e-05 s⁻¹ | 3580 ± 1000 µM | < 1e-05 s⁻¹ | < 1e-05 s⁻¹ | < 1e-05 s⁻¹ |  |  |
| G7U C16U C50G U69G | 0.000615 ± 0.00015 s⁻¹ |  |  | 0.0012 ± 0.00039 s⁻¹ | 0.00029 ± 0.00013 s⁻¹ | 0.000564 ± 0.0002 s⁻¹ | 0.00054 ± 0.00017 s⁻¹ |
| G9A A12U | 5.42e-05 ± 3.1e-06 s⁻¹ |  | < 1e-05 s⁻¹ |  |  |  | 2.41e-05 ± 1e-05 s⁻¹ |
| A6G C16U | 0.000459 ± 3.2e-05 s⁻¹ | 3450 ± 450 µM | 2.44e-05 ± 1.1e-05 s⁻¹ | 6.74e-05 ± 1e-05 s⁻¹ |  | 0.000208 ± 2.7e-05 s⁻¹ | 0.000336 ± 3.2e-05 s⁻¹ |
| A6U G41A | 1.73e-05 ± 2.5e-06 s⁻¹ |  | < 1e-05 s⁻¹ | < 1e-05 s⁻¹ | < 1e-05 s⁻¹ |  |  |
| A6U U47G | 5.58e-05 ± 2.6e-06 s⁻¹ | 564 ± 180 µM |  |  |  | 4.79e-05 ± 7.2e-06 s⁻¹ | 5.16e-05 ± 6.8e-06 s⁻¹ |

| Variant | kcat (glucosamine-6-phosphate [1]) | KM (glucosamine-6-phosphate [2]) | self-cleavage kobs at 160 uM GlcN6P (glucosamine-6-phosphate [3]) | self-cleavage kobs at 640 uM GlcN6P (glucosamine-6-phosphate [4]) | self-cleavage kobs at 40 uM GlcN6P (glucosamine-6-phosphate [5]) | self-cleavage kobs at 2500 uM GlcN6P (glucosamine-6-phosphate [6]) | self-cleavage kobs at 10000 uM GlcN6P (glucosamine-6-phosphate [7]) |
| --- | --- | --- | --- | --- | --- | --- | --- |
| A6U U47A | 0.000155 ± 3.1e-06 s⁻¹ | 1890 ± 110 µM |  | 3.88e-05 ± 9.8e-06 s⁻¹ |  | 8.84e-05 ± 1.2e-05 s⁻¹ | 0.000131 ± 1.3e-05 s⁻¹ |
| A6C A15G | 0.00015 ± 3.4e-06 s⁻¹ | 2500 ± 150 µM |  | 3.25e-05 ± 1.4e-05 s⁻¹ |  | 7.37e-05 ± 1.3e-05 s⁻¹ | 0.000121 ± 1.6e-05 s⁻¹ |
| A6C C50G | 2.11e-05 ± 7.4e-06 s⁻¹ |  |  |  |  |  |  |
| A6U U57G C67G | 2.88e-05 ± 7.6e-06 s⁻¹ |  |  |  |  |  |  |
| A6U G51A C71A | 5.19e-05 ± 1.7e-05 s⁻¹ |  |  |  |  |  |  |
| C8U C10A A15U G38A C50U | < 1e-05 s⁻¹ |  |  |  |  |  |  |
| A6G A39C | 0.00012 ± 4e-06 s⁻¹ | 1580 ± 180 µM |  | 3.27e-05 ± 8.5e-06 s⁻¹ |  | 7.92e-05 ± 1.4e-05 s⁻¹ | 0.000103 ± 8.7e-06 s⁻¹ |
| A6C A12U | 0.000292 ± 1.8e-05 s⁻¹ | 2560 ± 310 µM |  | 5.62e-05 ± 7.4e-06 s⁻¹ |  | 0.000157 ± 1.8e-05 s⁻¹ | 0.000227 ± 2.1e-05 s⁻¹ |
| G7A A39U | 1.87e-05 ± 1.7e-06 s⁻¹ | 2780 ± 970 µM |  |  |  |  |  |
| A6U G40A | 5.46e-05 ± 2e-06 s⁻¹ | 1650 ± 280 µM |  |  |  | 3.37e-05 ± 1e-05 s⁻¹ | 4.67e-05 ± 7e-06 s⁻¹ |
| C8U C71U | < 1e-05 s⁻¹ | 25 ± 11 µM |  | < 1e-05 s⁻¹ |  |  |  |
| G7C A36G G37U A52U U57C G63U | < 1e-05 s⁻¹ |  |  |  |  | < 1e-05 s⁻¹ |  |
| A6G U69G | 1.01e-05 ± 1.6e-06 s⁻¹ |  |  |  | < 1e-05 s⁻¹ |  |  |
| A6G A14C | 0.000105 ± 2.8e-06 s⁻¹ | 2620 ± 210 µM |  |  |  | 5.24e-05 ± 8.1e-06 s⁻¹ | 8.29e-05 ± 7.7e-06 s⁻¹ |
| A6G A14U | 0.000128 ± 4.9e-06 s⁻¹ | 1370 ± 180 µM |  | 3.84e-05 ± 1e-05 s⁻¹ |  | 8.77e-05 ± 1.3e-05 s⁻¹ | 0.000111 ± 1.1e-05 s⁻¹ |
| A6G A12U | 0.000134 ± 1.7e-05 s⁻¹ |  |  | 7.58e-05 ± 1.1e-05 s⁻¹ |  | 0.000155 ± 2.1e-05 s⁻¹ | 0.000119 ± 1e-05 s⁻¹ |
| G7A A15G U54G | 3.72e-05 ± 1.5e-05 s⁻¹ |  | < 1e-05 s⁻¹ |  | < 1e-05 s⁻¹ |  |  |
| A6C U55C | 0.000127 ± 4e-05 s⁻¹ |  |  |  |  | 3.24e-05 ± 1.2e-05 s⁻¹ | 7.95e-05 ± 1.6e-05 s⁻¹ |
| A6U U55A | 0.000365 ± 1.1e-05 s⁻¹ | 2630 ± 160 µM |  | 7.22e-05 ± 1.3e-05 s⁻¹ |  | 0.000173 ± 3.5e-05 s⁻¹ | 0.000291 ± 3.4e-05 s⁻¹ |
| C8A G37C G38A C70U | 1.14e-05 ± 3.5e-06 s⁻¹ |  |  |  |  |  |  |
